Results on 9 molecules are retold here after US20250250357A1 (NANJING ZAIMING PHARMACEUTICAL, published 2025).

The labels stand for the following.
T1: monkey MSLN full-length protein (NCBI: XP_028696439.1) expressed on HEK293T-monkey MSLN cells (monkey)
T1 construct: Whole encoded precursor
T1 chain: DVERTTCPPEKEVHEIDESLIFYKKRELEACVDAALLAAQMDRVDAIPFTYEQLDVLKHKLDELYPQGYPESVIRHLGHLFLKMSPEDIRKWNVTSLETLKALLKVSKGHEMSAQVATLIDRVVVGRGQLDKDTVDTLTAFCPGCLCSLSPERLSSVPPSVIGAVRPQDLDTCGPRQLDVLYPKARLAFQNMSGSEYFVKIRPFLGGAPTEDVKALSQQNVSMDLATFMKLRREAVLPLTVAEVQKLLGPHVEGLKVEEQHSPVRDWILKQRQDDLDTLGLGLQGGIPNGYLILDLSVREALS

B1: Tab111 (scFv, not shown: small tags and cut ends)
scFv: DVVMTQTPASVSEPVGGTVTIKCQASQRISSYLSWYQQKPGQRPKLLIFGASTLASGVPSRFKGSGSGTEYTLTISDLECADAATYYCQSYAYFDSNNWHAFGGGTEVVVGGGGSGGGGSGGGGSQQQLEESGGGLVKPEGSLTLTCKASGFDLGFYFYACWVRQAPGKGLEWIACIYTAGSGSTYYASWAKGRFTISKASSTTVTLQMTSLAAADTATYFCARSTANTRSTYYLNLWGPGTLVTVSS
notes: also called YP218 VL-(G4S)3-VH-his antibody; positive control
B2: S009-F2.21.4 (antibody, human IgG1, kappa, V domains shown)
VH: EVQLQQSGPELVKPGASVKIPCKASGYTFTDYNMDWVKQSHGKSLEWIGDINPNNGGSIYNQRFKGKATLTVDKSSSTAYMELRSLTSEDSAVYYCARRAYYSTGYFDVWGTGTTVTVSS
VL: QIVLTQSPALMSASPGEKVTITCSASSSISYMHWFQQKPGTSPKLWIYSTSTLASGVPARFSGSGSGTSYSLTISRMEAEDTATYYCQQRSSYPPTFGGGTKLEIKR
notes: human-murine chimeric antibody, human IgG1/kappa constant regions
B3: S009-F2.13.3 (antibody, human IgG1, kappa, V domains shown)
VH: QVQLQQSGAELMKPGASVKLSCKATGYTFTGYWIEWVKQRPGHGLEWIGEILPGSGSTNYNEKFKGKATFTADTSSNTAYMQLSSLTTEDSAIYYCARAGAWFAYWGQGTLVTVSA
VL: QIVLTQSPAIMSASLGERVTMTCTASSSVSSSYLHWYQQKPGSSPKLWTYSTSNLASGVPARFSGSGSGTSYSLTISSMEAEDAATYYCHQYHRSPWTFGGGTKLEIKR
notes: as for B2
B4: S009-F2.47.1 (antibody, human IgG1, kappa, V domains shown)
VH: QVQLQQPGAELVKPGASVKLSCKASGYTFTSYWMHWVKQRPGQGLEWIGMIHPNSGSTNYNEKFKSKATLTVDKSSSTAYMQLSSLTSEDSAVYYCARPVVPYWYFDVWGTGTTVTVSS
VL: DIVMTQSQKFMSTTVGDRVSITCKASQNVGTAVAWYQQKPGQSPKLLIYSASNRYTGVPDRFTGSGSGTDFTLTISNMQSEDLADYFCQQSSSYPLTFGAGTKLELKR
notes: as for B2
B5: S009-F2.39.3 (antibody, human IgG1, kappa, V domains shown)
VH: QVQLQQPGTELVKPGASVKLSCKASGYTFTNYWMHWVKQRPGQGLEWIGNINPSSGDSYYNERFMSKAKMTVDKSSSTAYMQLSSLTSEDSAVYYCARSGGLWLAFWGPGTLVTVSA
VL: DIVMTQSPSSLAMSVGQKVTMSCKSSQTLLNSVSQNNYLAWYQQKPGQSPTLLVYFASTRESGVPDRFIGGGSGTDFTLTISSVQAEDLADYFCQQHYRTPYTFGGGTNLEIKR
notes: as for B2
B6: S009-F2.17.3 (antibody, human IgG1, kappa, V domains shown)
VH: QVQLQQPGTELVTPGASVKLSCKASGYSFTSYWMHWVKQRPGQGLEWIGNINPSNGDTFYNEKFKNKATLTVDKSSSTAYMQLSSLTSEDSAVYYCARGWLRDYWGQGTTLTVSS
VL: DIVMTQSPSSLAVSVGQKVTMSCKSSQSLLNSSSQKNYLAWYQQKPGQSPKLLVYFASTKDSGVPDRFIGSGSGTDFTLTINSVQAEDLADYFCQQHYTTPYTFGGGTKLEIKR
notes: as for B2
B7: S009-F2.16.10 (antibody, human IgG1, kappa, V domains shown)
VH: QVQLQQPGAELIKPGASVKLSCKASGYTFTSYWMHWVKQRPGQGLEWIGIIHPNIGSTNYNERFKSKATLTVDKSSSTAYMQLSSLTSEDSAVYYCARRSSNYGDWYFDVWGTGTTVTVSS
VL: DIVMTQSHRFMSTSVGDRVSITCKASQDVGTSVAWYQQKPGQSPKLLIYWASTQHTGVPDRFTGSGSGTDFTLTINNVQSEDLLDYFCQQYSSYPLTFGAGTKLELKR
notes: as for B2
B8: S009-F2.23.12 (antibody, human IgG1, kappa, V domains shown)
VH: QVQLQQPGTELVKPGASVKLSCKASGYTFTNYWMHWVKQRPGQGLEWIGNINPSNGGPYYNERFRSKATLTVDKSSSTAYMQLSSLTSEDSAVYYCARPYYGSSYGYFDYWGQGTTLTVSS
VL: DIQMTQSPSSLSASLGGKVTITCKASQDINKYIAWYQHKPGKGPRLLIHYTSELQPGIPSRFSGNGSGRDYSFSISNLEPEDIATYYCLQYANPLRTFGGGTKLEIKR
notes: as for B2
B9: S009-F2-56.12 (antibody, human IgG1, kappa, V domains shown)
VH: DVQLQESGPGMVKPSQSLSLTCTVTGYSITSGYDWHWIRHFPGNKLEWMGYISYSGSTNYNPSLKSRISITHDTSKNHFFLKLKSVTTEDTATYYCARGTGPDYWGQGTTLTVSS
VL: DIVMTQSQKFMSTSVGDRVSITCKASQNVRTAVAWYQQKPGQSPKALIHLPSNRHTGVPDRFTGSGSGTDFTLTISNVQSEDLADYFCLQHWNYPLTFGGGTKLEIKR
notes: as for B2

The target of the first test is T2, human MSLN-R3 protein (human, UniProt Q13421 487-598).
T2 construct: also called hMSLN-R3
T2 sequence (Q13421 495-606, form in doubt): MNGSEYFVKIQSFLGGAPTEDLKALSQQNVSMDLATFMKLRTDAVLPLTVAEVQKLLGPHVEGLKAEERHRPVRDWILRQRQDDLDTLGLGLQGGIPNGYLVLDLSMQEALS
Put plainly: ELISA on coated antigen, antibody 1 nM. A general note: In an ELISA, binding on a coated surface is turned into a signal by an enzyme label.
B1: the OD450 stood at 0.51 OD450.

For the next test, the target named is T2, human MSLN-R3 protein. Put plainly: ELISA on coated antigen, antibody 0.1 nM.
Regarding B1, the OD450 was found to be 0.09 OD450.

Another test addresses T2, human MSLN-R3 protein. Put plainly: ELISA on coated antigen, antibody 0.01 nM.
For the molecule B1, the OD450 is 0.05 OD450.

In a further test the target is T2, human MSLN-R3 protein. Put plainly: ELISA on coated antigen, antibody 10 nM.
In turn, B1 displayed an OD450 of 1.88 OD450.

The next test deals with T2, human MSLN-R3 protein. In words: ELISA on coated antigen, antibody 100 nM.
B1 yielded an OD450 of 2.1 OD450.

The target of a further test is T2, human MSLN-R3 protein. In words: ELISA on coated antigen, antibody 0.0001 nM.
For B1, the OD450 worked out at 0.05 OD450.

The target of a further test is T3, human MSLN protein endogenously expressed on OVCAR3 tumor cells (human, UniProt Q13421 296-598).
T3 construct: whole, on cells; Endogenous target on OVCAR3 cells; kept apart from the recombinant full-length construct; also called mesothelin
T3 sequence (Q13421 other isoform, or with tags, fused parts or gaps): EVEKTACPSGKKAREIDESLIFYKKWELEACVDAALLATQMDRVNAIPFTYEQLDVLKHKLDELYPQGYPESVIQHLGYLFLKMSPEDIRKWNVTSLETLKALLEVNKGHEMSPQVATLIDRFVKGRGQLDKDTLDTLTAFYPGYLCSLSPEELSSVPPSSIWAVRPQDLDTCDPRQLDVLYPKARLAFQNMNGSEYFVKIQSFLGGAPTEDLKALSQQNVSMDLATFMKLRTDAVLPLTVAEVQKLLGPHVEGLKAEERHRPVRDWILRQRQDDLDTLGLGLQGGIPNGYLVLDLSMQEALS
Put plainly: FACS on OVCAR3 cells.
Experimental: (§1) The desired cells were expanded to the logarithmic growth phase in a T-75 cell culture flask. […] After the cells from the previous step were subjected to cell counting, the cell pellet was resuspended to 2×10⁶ cells/mL in a blocking buffer of [PBS+2% (w/w) BSA] and added into a 96-well FACS reaction plate at 50 μL/well. A chimeric antibody (a sample to be tested) was added at 50 μL/well, and the plate was incubated on ice for 2 h. […] After the plate was centrifuged and washed 5 times with a PBST buffer, assay and analysis were performed by FACS (FACS CantoII, purchased from BD). Data analysis was performed by software (Flowjo) to obtain the mean fluorescence intensity (MFI) of the cells.
Take B2: the “Maximum mean fluorescence intensity” value is 5260.

For the molecule B3, the EC50 (as a rule, the concentration at which the effect is half-maximal) amounted to 0.57 nM and the “Maximum mean fluorescence intensity” value is 14800.

As for B4, a half-maximal response (EC50) required 10.4 nM and the “Maximum mean fluorescence intensity” value came out at 15400.

As to B5, the EC50 amounted to 5.52 nM and the “Maximum mean fluorescence intensity” value amounted to 14600.

On to B6, for which the midpoint of the response, the EC50, lay at 2.92 nM and the “Maximum mean fluorescence intensity” value came out at 17600.

For B7, the response was half-maximal at 2.96 nM (EC50) and the “Maximum mean fluorescence intensity” value amounted to 14400.

As for B8, the EC50 was 1 nM and the “Maximum mean fluorescence intensity” value turned out to be 14600.

For the molecule B9, the response was half-maximal at 0.54 nM (EC50) and the “Maximum mean fluorescence intensity” value came out at 6140.

The target in another test is T2, human MSLN-R3 protein. Put plainly: ELISA on coated antigen, antibody 10 nM. The source holds these as a separate data set.
For the molecule B1, the OD450 is 1.88 OD450.

In another test the target is T2, human MSLN-R3 protein. In words: ELISA on coated antigen, antibody 0.01 nM. The source holds these as a separate data set.
With B1, the OD450 came out at 0.05 OD450.

The next test deals with T4, human MSLN full-length protein (NCBI: AAH09272.1) expressed on HEK293T-hMSLN-B8 cells (human, UniProt Q13421 296-598).
T4 construct: Whole encoded precursor
T4 sequence (Q13421 other isoform, or with tags, fused parts or gaps limits assumed): as the sequence (Q13421 other isoform, or with tags, fused parts or gaps) above, with R14P counted along it
In words: FACS on HEK293T-hMSLN-B8 cells.
Experimental: as §1
For B2, the EC50 is approximately 0.82 nM and the “Maximum mean fluorescence intensity” value came to 91800.

As to B3, the EC50 is 1.15 nM and the “Maximum mean fluorescence intensity” value worked out at 112000.

With B4, the EC50 is approximately 0.82 nM and the “Maximum mean fluorescence intensity” value amounted to 98200.

Regarding B5, a half-maximal effect (EC50) was put at 5.79 nM and the “Maximum mean fluorescence intensity” value came to 138000.

As for B6, the midpoint of the response, the EC50, lay at 3.95 nM and the “Maximum mean fluorescence intensity” value came to 148000.

For B7, the EC50 was determined as 0.88 nM and the “Maximum mean fluorescence intensity” value is 109000.

Regarding B8, the response was half-maximal at 2.39 nM (EC50) and the “Maximum mean fluorescence intensity” value is 144000.

As for B9, the EC50 was approximately 0.79 nM and the “Maximum mean fluorescence intensity” value worked out at 67000.

Another test addresses T1, monkey MSLN full-length protein (NCBI: …). Put plainly: FACS on HEK293T-monkey MSLN cells.
Experimental: as §1
On to B2, for which a half-maximal response (EC50) required 0.44 nM and the “Maximum mean fluorescence intensity” value worked out at 20100.

Regarding B3, the “Maximum mean fluorescence intensity” value is 138 and the binding result is reported as “no binding”.

Turning to B4, a half-maximal response (EC50) required 0.32 nM and the “Maximum mean fluorescence intensity” value came to 17100.

Regarding B5, the EC50 stood at 4.18 nM and the “Maximum mean fluorescence intensity” value stood at 20800.

For B6, it took 1.63 nM to reach a half-maximal effect (EC50) and the “Maximum mean fluorescence intensity” value amounted to 24300.

As to B7, the EC50 was found to be 0.3 nM and the “Maximum mean fluorescence intensity” value turned out to be 18400.

As for B8, the EC50 was approximately 0.83 nM and the “Maximum mean fluorescence intensity” value came out at 20400.

For the molecule B9, the “Maximum mean fluorescence intensity” value was found to be 95 and the binding result is on record as “no binding”.

The target in a further test is T5, human MSLN-R3 protein (Met487-Ser606 of NCBI AAH09272.1) expressed on HEK293T-hMSLN-R3 cells (human, UniProt Q13421 487-606).
T5 construct: also called Region3
T5 sequence (Q13421 495-614): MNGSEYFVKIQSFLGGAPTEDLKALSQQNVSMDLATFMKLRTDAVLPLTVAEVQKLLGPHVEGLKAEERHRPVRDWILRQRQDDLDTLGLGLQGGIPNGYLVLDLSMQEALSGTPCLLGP
Put plainly: FACS on HEK293T-hMSLN-R3 cells.
Experimental: as §1
Regarding B2, the “Maximum mean fluorescence intensity” value was 348 and the binding result is listed as “no binding”.

As for B3, the “Maximum mean fluorescence intensity” value is 112 and the binding result was “no binding”.

B5: it took 4.19 nM to reach a half-maximal effect (EC50) and the “Maximum mean fluorescence intensity” value stood at 3290.

For the molecule B6, the EC50 turned out to be 1.48 nM and the “Maximum mean fluorescence intensity” value stood at 3840.

With B7, the “Maximum mean fluorescence intensity” value amounted to 114 and the binding result is “no binding”.

In the case of B8, the EC50 amounted to 0.5 nM and the “Maximum mean fluorescence intensity” value was 3880.

As for B9, the “Maximum mean fluorescence intensity” value stood at 94 and the binding result is reported as “no binding”.

A further test addresses T2, human MSLN-R3 protein. In words: ELISA on coated antigen, antibody 100 nM. This is another data set of the same source.
B1 had an OD450 of 2.1 OD450.

In a further test the target is T2, human MSLN-R3 protein. Put plainly: ELISA on coated antigen, antibody 0.001 nM.
Turning to B1, the OD450 was found to be 0.05 OD450.

The target in another test is T2, human MSLN-R3 protein. Put plainly: ELISA on coated antigen, antibody 0.001 nM. This is another data set of the same source.
Regarding B1, the OD450 is 0.05 OD450.

The next test deals with T2, human MSLN-R3 protein. Put plainly: ELISA on coated antigen, antibody 0.1 nM. This is another data set of the same source.
The molecule B1 displayed an OD450 of 0.09 OD450.

The target of the next test is T2, human MSLN-R3 protein. Put plainly: ELISA on coated antigen, antibody 1 nM. This is another data set of the same source.
In turn, B1 had an OD450 of 0.51 OD450.

Another test concerns the target T2, human MSLN-R3 protein. Put plainly: ELISA on coated antigen, antibody 0.0001 nM. The source holds these as a separate data set.
Molecule B1 returned an OD450 of 0.05 OD450.
